Experimental data from patent publication US20210130491A1 (ONCOTAG DIAGNOSTICS, published 2021).

Tests used:
His-AIMP1 = biological target: T1, His-AIMP1 (UniProt Q12904 1-312, limits assumed); experiment: ELISA, protein coated at 1 ug/ml
T1 construct: not shown: His tag
T1 sequence (looked up): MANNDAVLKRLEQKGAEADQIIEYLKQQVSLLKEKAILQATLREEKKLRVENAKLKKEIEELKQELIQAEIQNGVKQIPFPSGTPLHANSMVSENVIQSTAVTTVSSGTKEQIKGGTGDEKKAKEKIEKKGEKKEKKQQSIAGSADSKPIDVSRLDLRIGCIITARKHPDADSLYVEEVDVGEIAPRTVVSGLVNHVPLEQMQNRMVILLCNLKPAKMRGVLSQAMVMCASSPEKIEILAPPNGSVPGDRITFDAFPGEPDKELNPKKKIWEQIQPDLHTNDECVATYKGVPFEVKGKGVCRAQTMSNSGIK
Protocol: (§1) Each well of 96 well plates (Corning 3690 flat bottom, 96-well half-area plates) was coated with different kinds of ARS proteins (His-MRS, MRS full, DX2 tag free, 34S-DX2, 34S-AIMP2, His-CRS, His-AIMP1, His-GRS, His-WRS, His-KRS) at the concentration of 1 μg/ml. 1E8 and 8A12 antibodies at a concentration of 500 ng/ml were added onto the 96 well plates coated with ARS proteins and allowed to react for 1 hour. Thereafter, HRP-conjugated anti-mouse IgG secondary antibody was added and reacted for 1 hour. ELISA was performed and absorbance was measured at 450 nm. TMB (3,3′,5,5′-tetramethylbenzidine) was used as substrate.

His-GRS = biological target: T2, His-GRS (UniProt P41250 55-739); experiment: ELISA, protein coated at 1 ug/ml
T2 construct: not shown: His tag
T2 sequence (looked up): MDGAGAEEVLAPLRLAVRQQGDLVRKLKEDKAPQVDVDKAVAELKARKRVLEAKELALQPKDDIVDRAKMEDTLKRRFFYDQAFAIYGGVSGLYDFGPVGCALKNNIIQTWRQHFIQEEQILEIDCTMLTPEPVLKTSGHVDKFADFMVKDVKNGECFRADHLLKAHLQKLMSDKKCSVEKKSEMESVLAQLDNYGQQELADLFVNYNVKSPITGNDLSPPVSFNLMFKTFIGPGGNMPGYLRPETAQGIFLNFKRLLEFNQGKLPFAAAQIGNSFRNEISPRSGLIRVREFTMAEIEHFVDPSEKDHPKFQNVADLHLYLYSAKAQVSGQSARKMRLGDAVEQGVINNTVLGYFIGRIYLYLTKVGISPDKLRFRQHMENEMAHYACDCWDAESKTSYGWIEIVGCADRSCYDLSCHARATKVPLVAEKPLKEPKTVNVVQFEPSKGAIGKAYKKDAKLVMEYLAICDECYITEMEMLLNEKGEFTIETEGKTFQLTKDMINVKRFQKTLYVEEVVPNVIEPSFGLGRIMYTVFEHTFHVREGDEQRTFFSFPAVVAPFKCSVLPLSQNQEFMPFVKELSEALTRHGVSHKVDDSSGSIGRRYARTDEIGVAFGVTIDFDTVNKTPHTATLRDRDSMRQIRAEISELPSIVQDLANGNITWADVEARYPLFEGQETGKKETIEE
Protocol: as §1

34S-AIMP2 = biological target: T3, 34S-AIMP2 (UniProt Q13155 1-320); experiment: ELISA, protein coated at 1 ug/ml
T3 construct: not shown: '34S' tag or fusion partner
T3 sequence (looked up): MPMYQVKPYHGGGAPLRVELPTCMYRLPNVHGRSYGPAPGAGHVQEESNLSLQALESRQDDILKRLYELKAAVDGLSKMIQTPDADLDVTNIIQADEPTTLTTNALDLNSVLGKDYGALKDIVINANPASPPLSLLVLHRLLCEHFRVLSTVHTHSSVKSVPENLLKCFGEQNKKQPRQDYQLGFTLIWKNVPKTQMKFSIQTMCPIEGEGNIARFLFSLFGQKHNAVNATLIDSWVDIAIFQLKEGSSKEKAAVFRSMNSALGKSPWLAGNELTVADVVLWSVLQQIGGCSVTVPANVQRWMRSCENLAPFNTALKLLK
Protocol: as §1

His-CRS = biological target: T4, His-CRS (UniProt P49589 1-748); experiment: ELISA, protein coated at 1 ug/ml
T4 construct: not shown: His tag
T4 sequence (looked up): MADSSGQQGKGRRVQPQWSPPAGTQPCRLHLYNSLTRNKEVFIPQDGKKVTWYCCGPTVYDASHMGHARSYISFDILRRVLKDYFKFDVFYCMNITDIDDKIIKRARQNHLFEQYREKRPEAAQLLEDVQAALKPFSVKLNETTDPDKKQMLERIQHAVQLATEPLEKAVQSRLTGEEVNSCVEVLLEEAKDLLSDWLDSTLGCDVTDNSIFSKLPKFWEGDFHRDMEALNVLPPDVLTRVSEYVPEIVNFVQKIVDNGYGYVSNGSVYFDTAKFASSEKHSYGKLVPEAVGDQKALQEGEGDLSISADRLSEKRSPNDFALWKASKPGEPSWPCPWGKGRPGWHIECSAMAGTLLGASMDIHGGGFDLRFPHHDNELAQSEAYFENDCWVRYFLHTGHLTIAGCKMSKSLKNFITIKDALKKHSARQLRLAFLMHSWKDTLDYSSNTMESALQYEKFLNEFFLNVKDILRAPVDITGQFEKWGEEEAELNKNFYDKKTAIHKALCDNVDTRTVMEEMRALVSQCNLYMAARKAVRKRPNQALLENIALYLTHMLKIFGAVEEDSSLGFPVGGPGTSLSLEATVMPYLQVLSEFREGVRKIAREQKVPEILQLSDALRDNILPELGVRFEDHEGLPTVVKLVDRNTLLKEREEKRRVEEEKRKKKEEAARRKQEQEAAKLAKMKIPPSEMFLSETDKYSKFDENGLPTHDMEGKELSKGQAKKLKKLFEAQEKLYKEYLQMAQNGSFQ
Protocol: as §1

His-KRS = biological target: T5, His-KRS (UniProt Q15046 1-597); experiment: ELISA, protein coated at 1 ug/ml
T5 construct: not shown: His tag
T5 sequence (Q15046 whole entry): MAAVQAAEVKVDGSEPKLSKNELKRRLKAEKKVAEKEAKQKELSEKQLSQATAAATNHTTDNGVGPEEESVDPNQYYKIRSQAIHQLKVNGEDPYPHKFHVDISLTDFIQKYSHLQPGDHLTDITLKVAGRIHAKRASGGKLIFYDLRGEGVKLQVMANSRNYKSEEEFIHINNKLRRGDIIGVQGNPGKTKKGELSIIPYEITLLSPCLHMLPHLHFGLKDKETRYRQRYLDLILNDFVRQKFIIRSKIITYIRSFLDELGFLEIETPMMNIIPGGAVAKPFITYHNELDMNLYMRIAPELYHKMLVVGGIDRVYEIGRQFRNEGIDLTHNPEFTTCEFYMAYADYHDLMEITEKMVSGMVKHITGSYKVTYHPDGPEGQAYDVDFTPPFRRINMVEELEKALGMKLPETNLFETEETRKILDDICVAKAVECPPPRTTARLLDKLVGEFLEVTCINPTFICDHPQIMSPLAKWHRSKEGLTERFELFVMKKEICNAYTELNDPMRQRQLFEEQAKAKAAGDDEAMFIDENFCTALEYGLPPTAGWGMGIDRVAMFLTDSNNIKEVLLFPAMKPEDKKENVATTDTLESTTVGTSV
Protocol: as §1

[1] = biological target: T6, MRS fragment 7 (660~860 aa) (human, UniProt P56192 660-860); experiment: western blot of lysate of transfected H460 cells
T6 construct: not shown: Myc linked to the N-terminus
T6 sequence: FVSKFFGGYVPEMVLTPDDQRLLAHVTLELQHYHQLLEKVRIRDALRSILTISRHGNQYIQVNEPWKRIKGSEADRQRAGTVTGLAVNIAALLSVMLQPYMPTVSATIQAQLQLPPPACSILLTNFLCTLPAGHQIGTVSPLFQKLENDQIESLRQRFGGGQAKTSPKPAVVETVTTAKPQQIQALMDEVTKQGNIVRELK
Protocol: Then, 2 μg of the cloned vector DNA were transfected into H460 cells using Turbofect (Thermo) according to the manufacturer's instructions. After 24 hours, cells were harvested and subjected to western blot. 1E8 antibody and 8A12 antibody were diluted 1:5000 (0.2 μg/mL) as the primary antibody.
Then, western blot was performed in the same manner as described above.

B1: 1E8 antibody (1E8 IgG) (antibody, V domains shown)
VH: DVKLQESGPGLVNPSQSLSLTCTVTGYSITSDYAWNWIRQFPGNKLEWMGYISYSGRTSYKSSLKSRISITRDTSKNQFFLELNSVTTEDTATYYCARDYGNFVGYFDVWGAGTTVTVSS
VL: DIVMTQSPSSLAVSVGEKVTMSCKSSQSLLYSSNQKNYLAWYQQKPGQSPKLLIYWASTRESGVPDRFTGSGSGTEFTLTISSVKAEDLAVYYCQQYYSYPTFGGGTKLEIKA
notes: Mouse monoclonal from hybridoma clone 1E8; also called IE8; anti-MRS antibody (1E8)
binding result (His-AIMP1): no binding (tested: 500 ng/ml) | binding result (His-GRS): no binding (tested: 500 ng/ml) | binding result (34S-AIMP2): no binding (tested: 500 ng/ml) | binding result (His-CRS): no binding (tested: 500 ng/ml) | binding result (His-KRS): no binding (tested: 500 ng/ml) | binding result [1]: no binding (tested: 1:5000 (0.2 ug/mL))

B2: 8A12 antibody (8A12 IgG) (antibody, V domains shown)
VH: DVKLQESGPGLVKPSQSLSLTCTVTGYSITSEYAWTWIRQFPGNKLEWMGYINYNGNTNLNPSLKSRISIIRDTSKNQFFLQLNSVTTEDTATYYCARSLWPRGWFAYWGQGTLVTVSA
VL: DIQMTQSPSSMYASLGERVTITCKASQDINSYLSWFQQKPGKSPKTLMYRANRLVDGVPSRFSGSGSGQDYSLTISSLEYEDMGIYYCLQYDEFPRTFGGGTKLEIKA
notes: Mouse monoclonal from hybridoma clone 8A12; also called 8Al2; anti-MRS antibody (8A12)
binding result (His-AIMP1): no binding (tested: 500 ng/ml) | binding result (His-GRS): no binding (tested: 500 ng/ml) | binding result (34S-AIMP2): no binding (tested: 500 ng/ml) | binding result (His-CRS): no binding (tested: 500 ng/ml) | binding result (His-KRS): no binding (tested: 500 ng/ml) | binding result [1]: no binding (tested: 1:5000 (0.2 ug/mL))
